Data reported in the supplement of paper PMC10724198.
± gives the standard deviation of the averaged measurements.

Columns and labels:
Saccharomyces cerevisiae [1] = assay: protein stability index of tFT-peptide fusion (C-terminal peptide) (PSI (0-1 scale)); higher = more stable (slower turnover); details: genetic background: wild type; temperature: 30 C
Saccharomyces cerevisiae [2] = assay: as above
Procedure: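 MPS profiling in S. cerevisiae of the tFT-X12 degron library: putative degron peptides plus stable controls, 12 aa, fused to the C-terminus of a sfGFP-mCherry timer. Cells are FACS-sorted into 8 mCherry/sfGFP bins and deep-sequenced. PSI runs from 0 (unstable) to 1 (stable). Backgrounds are wild type, das1Δ and doa10Δ at 30 °C, and wild type, das1Δ, cdc34-1 and cdc53-1 at 37 °C; 2-3 technical replicates each.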

[3] = genetic background: cdc34-1, temperature: 37 C
[4] = genetic background: cdc53-1, temperature: 37 C
[5] = genetic background: das1 deletion, temperature: 30 C
[6] = genetic background: das1 deletion, temperature: 37 C
[7] = genetic background: doa10 deletion, temperature: 30 C
[8] = genetic background: wild type, temperature: 30 C
[9] = genetic background: wild type, temperature: 37 C
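Also: PSI is a weighted mean of sequencing reads over stability bins, variants kept only with over 10 reads, mCherry proximal and sfGFP distal, peptide attached via GGGS linker.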

| Sequence | protein stability index (Saccharomyces cerevisiae [1]) | protein stability index (Saccharomyces cerevisiae [2]; [3]) | protein stability index (Saccharomyces cerevisiae [2]; [4]) | protein stability index (Saccharomyces cerevisiae [2]; [5]) | protein stability index (Saccharomyces cerevisiae [2]; [6]) | protein stability index (Saccharomyces cerevisiae [2]; [7]) | protein stability index (Saccharomyces cerevisiae [2]; [8]) | protein stability index (Saccharomyces cerevisiae [2]; [9]) |
| --- | --- | --- | --- | --- | --- | --- | --- | --- |
| GWIFFYFTWFVG | 0.263 ± 0.022 | 0.127 ± 0.018 | 0.236 ± 0.025 | 0.198 ± 0.028 | 0.319 ± 0.017 | 0.181 ± 0.029 | 0.172 ± 0.035 | 0.275 ± 0.0097 |
| GWLSVLVYFLSG | 0.408 ± 0.03 | 0.471 ± 0.025 | 0.545 ± 0.03 | 0.387 ± 0.034 | 0.5619 ± 0.0042 | 0.284 ± 0.0044 | 0.326 ± 0.0091 | 0.481 ± 0.022 |
| GWVSCCVWSFLV | 0.122 ± 0.015 | 0.243 ± 0.028 | 0.5924 ± 0.0053 | 0.531 ± 0.016 | 0.663 ± 0.0083 | 0.066 ± 0.012 | 0.066 ± 0.0087 | 0.063 ± 0.016 |
| HALCLSVYVSAH | 0.281 ± 0.024 | 0.265 ± 0.0049 | 0.304 ± 0.022 | 0.249 ± 0.031 | 0.397 ± 0.018 | 0.179 ± 0.0045 | 0.185 ± 0.02 | 0.323 ± 0.018 |
| HCLLQDVPPTLH | 0.734 ± 0.031 | 0.641 ± 0.026 | 0.6925 ± 0.0062 | 0.711 ± 0.051 | 0.678 ± 0.014 | 0.703 ± 0.021 | 0.702 ± 0.015 | 0.66 ± 0.02 |
| HCNRRNKIYWYS | 0.304 ± 0.051 | 0.6116 ± 0.00076 | 0.73 ± 0.012 | 0.689 ± 0.063 | 0.739 ± 0.051 | 0.106 ± 0.019 | 0.111 ± 0.032 | 0.189 ± 0.014 |
| HILRLVYFIVYE | 0.4189 ± 0.003 | 0.402 ± 0.01 | 0.533 ± 0.028 | 0.316 ± 0.044 | 0.504 ± 0.0089 | 0.264 ± 0.01 | 0.293 ± 0.015 | 0.554 ± 0.017 |
| HLYCYNILLVSG | 0.286 ± 0.042 | 0.2001 ± 0.00066 |  | 0.306 ± 0.04 | 0.419 ± 0.007 | 0.201 ± 0.018 | 0.254 ± 0.015 | 0.375 ± 0.038 |
| HSPRVLLPLYFR | 0.378 ± 0.086 | 0.199 ± 0.064 | 0.133 ± 0.013 | 0.301 ± 0.035 | 0.365 ± 0.033 | 0.672 ± 0.02 | 0.278 ± 0.037 | 0.328 ± 0.021 |
| ICFPLQIFRILV | 0.3549 ± 0.0027 | 0.408 ± 0.013 | 0.46 ± 0.019 | 0.348 ± 0.021 | 0.4919 ± 0.0042 | 0.211 ± 0.014 | 0.246 ± 0.019 | 0.345 ± 0.006 |
| IEVGVAILLLGE | 0.514 ± 0.12 | 0.646 ± 0.042 | 0.668 ± 0.0081 | 0.551 ± 0.03 | 0.6842 ± 0.0029 | 0.5066 ± 0.0028 | 0.529 ± 0.01 | 0.6791 ± 0.0027 |
| IFFSLFFFFLCN | 0.35 ± 0.056 | 0.353 ± 0.06 | 0.413 ± 0.0066 | 0.356 ± 0.027 | 0.526 ± 0.068 | 0.35 ± 0.03 | 0.289 ± 0.011 | 0.4212 ± 0.0014 |
| IGLSIWSVVSAL | 0.392 ± 0.024 | 0.652 ± 0.042 | 0.689 ± 0.015 | 0.535 ± 0.016 | 0.6826 ± 0.0014 | 0.253 ± 0.0069 | 0.286 ± 0.033 | 0.5056 ± 0.0043 |
| IILGVRQIEVNS | 0.4447 ± 0.0033 | 0.488 ± 0.012 | 0.517 ± 0.031 | 0.358 ± 0.029 | 0.526 ± 0.021 | 0.323 ± 0.0071 | 0.373 ± 0.031 | 0.52 ± 0.0076 |
| IKSIKQNKIKTI | 0.292 ± 0.008 | 0.619 ± 0.051 | 0.648 ± 0.021 | 0.653 ± 0.029 | 0.699 ± 0.026 | 0.186 ± 0.013 | 0.171 ± 0.079 | 0.246 ± 0.032 |
| IKTKGRYKKQRT | 0.408 ± 0.014 | 0.632 ± 0.051 | 0.709 ± 0.01 | 0.679 ± 0.049 | 0.743 ± 0.037 | 0.34 ± 0.018 | 0.376 ± 0.058 | 0.572 ± 0.045 |
| ILFIVSSCGCVG | 0.471 ± 0.0064 | 0.543 ± 0.031 | 0.557 ± 0.039 | 0.445 ± 0.037 | 0.5904 ± 0.0013 | 0.443 ± 0.024 | 0.446 ± 0.015 | 0.5724 ± 0.0043 |
| ILISVNRVVLYC | 0.2171 ± 0.00013 | 0.364 ± 0.016 | 0.4123 ± 0.0011 | 0.289 ± 0.027 | 0.461 ± 0.011 | 0.115 ± 0.014 | 0.14 ± 0.017 | 0.1901 ± 0.00075 |
| ILRKTAFRLRVL | 0.397 ± 0.025 | 0.623 ± 0.047 | 0.635 ± 0.0073 | 0.525 ± 0.011 | 0.658 ± 0.023 | 0.228 ± 0.016 | 0.264 ± 0.024 | 0.376 ± 0.01 |
| IMWCSSVSEVQW | 0.4741 ± 0.0032 | 0.538 ± 0.075 | 0.582 ± 0.0064 | 0.472 ± 0.027 | 0.518 ± 0.0069 | 0.492 ± 0.03 | 0.494 ± 0.047 | 0.5016 ± 0.0029 |
